B1: peptide HD2 (from tick evasin EVA4) / CCL19 (biotinylated, synthetic) (parent complex)
chain 1: EEDDYTAYAPLTCYFT
chain 2: GTNDAEDCCLSVTQKPIPGYIVRNFHYLLIKDGCRVPAVVFTTLRGRQLCAPPDQPWVERIIQRLQRTSAKMKRRSS

This assay covers variants of B1.
Turning to chain 1 EEDDYTAYAPLTCYVT [chain 1 F15V], the enrichment is -3.63 log2 (difference from the parental peptide). As for chain 1 EEDDYTAYAPLTCYET [chain 1 F15E], the enrichment was -4.2 log2 (difference from the parental peptide). With chain 1 EEDDYTAYAPLTCYST [chain 1 F15S] the figure was -6.94 log2 (difference from the parental peptide); with chain 1 EEDDYTAYAPLTCYYT [chain 1 F15Y], -1.04 log2 (difference from the parental peptide); with chain 1 EEDDYTAYAPLTCYCT [chain 1 F15C], -6.81 log2 (difference from the parental peptide).

Regarding chain 1 EEDDYTAYAPLTCYMT [chain 1 F15M], the enrichment was -6.46 log2 (difference from the parental peptide). On to chain 1 EEDDYTAYAPLTCYPT [chain 1 F15P], for which the enrichment was -6.33 log2 (difference from the parental peptide).

For the variant chain 1 EEDDYTAYAPLTCYWT [chain 1 F15W], the enrichment is -0.785 log2 (difference from the parental peptide). For chain 1 EEDDYTAYAPLTCYQT [chain 1 F15Q], the enrichment was -4.06 log2 (difference from the parental peptide). Take chain 1 EEDDYTAYAPLTCYLT [chain 1 F15L]: the enrichment was -2.93 log2 (difference from the parental peptide). With chain 1 ESDDYTAYAPLTCYFT [chain 1 E2S] the figure was -0.165 log2 (difference from the parental peptide); with chain 1 EADDYTAYAPLTCYFT [chain 1 E2A], -0.338 log2 (difference from the parental peptide); with chain 1 ERDDYTAYAPLTCYFT [chain 1 E2R], -2.64 log2 (difference from the parental peptide). Regarding chain 1 ELDDYTAYAPLTCYFT [chain 1 E2L], the enrichment was 0.769 log2 (difference from the parental peptide). Regarding chain 1 EEDDYTAYAPLTDYFT [chain 1 C13D], the enrichment is -7.13 log2 (difference from the parental peptide). Regarding chain 1 EEDDYTAYAPLTPYFT [chain 1 C13P], the enrichment was -6.25 log2 (difference from the parental peptide). With chain 1 EEDDYTAYAPLTSYFT [chain 1 C13S] the figure was -6.7 log2 (difference from the parental peptide). For the variant chain 1 EEDDYTAVAPLTCYFT [chain 1 Y8V], the enrichment is -4.57 log2 (difference from the parental peptide). With chain 1 EEDDYTASAPLTCYFT [chain 1 Y8S] the figure was -6.72 log2 (difference from the parental peptide). With chain 1 EEDDYTAMAPLTCYFT [chain 1 Y8M] the figure was -4.14 log2 (difference from the parental peptide); with chain 1 EEDDYTAHAPLTCYFT [chain 1 Y8H], -6.54 log2 (difference from the parental peptide). As for chain 1 EEDDYTAYAYLTCYFT [chain 1 P10Y], the enrichment was -6.54 log2 (difference from the parental peptide). For chain 1 EEDDYTAYAMLTCYFT [chain 1 P10M], the enrichment is -7.47 log2 (difference from the parental peptide).

Consider chain 1 EEDDYTAYAFLTCYFT [chain 1 P10F], for which the enrichment was -4.06 log2 (difference from the parental peptide). With chain 1 EEDDYTAYAWLTCYFT [chain 1 P10W] the figure was -2.06 log2 (difference from the parental peptide). With chain 1 EEDDYTAYAVLTCYFT [chain 1 P10V] the figure was -9.35 log2 (difference from the parental peptide); with chain 1 EEDDYTAYALLTCYFT [chain 1 P10L], -6.31 log2 (difference from the parental peptide).

As for chain 1 EEDDYTAYATLTCYFT [chain 1 P10T], the enrichment was -5.84 log2 (difference from the parental peptide). With chain 1 EEDDYTVYAPLTCYFT [chain 1 A7V] the figure was 0.465 log2 (difference from the parental peptide); with chain 1 EEDDYTYYAPLTCYFT [chain 1 A7Y], 4.06 log2 (difference from the parental peptide); with chain 1 EEDDYTHYAPLTCYFT [chain 1 A7H], -0.764 log2 (difference from the parental peptide).

For chain 1 EEDDYTMYAPLTCYFT [chain 1 A7M], the enrichment is 2.5 log2 (difference from the parental peptide). With chain 1 EEDDYTIYAPLTCYFT [chain 1 A7I], the enrichment is 1.38 log2 (difference from the parental peptide). For chain 1 EEDDYTLYAPLTCYFT [chain 1 A7L], the enrichment is 1.76 log2 (difference from the parental peptide). With chain 1 EEDDYTKYAPLTCYFT [chain 1 A7K] the figure was -3.29 log2 (difference from the parental peptide); with chain 1 EEDDYTSYAPLTCYFT [chain 1 A7S], -2.1 log2 (difference from the parental peptide). With chain 1 EEDDYTNYAPLTCYFT [chain 1 A7N] the figure was -1.33 log2 (difference from the parental peptide). As for chain 1 EEDDYTAYAPLLCYFT [chain 1 T12L], the enrichment is 2.69 log2 (difference from the parental peptide). chain 1 EEDDYTAYAPLICYFT [chain 1 T12I]: the enrichment is 5.78 log2 (difference from the parental peptide). With chain 1 EEDDYTAYAPLACYFT [chain 1 T12A] the figure was -4.86 log2 (difference from the parental peptide); with chain 1 EEDDYTAYAPLECYFT [chain 1 T12E], -6.93 log2 (difference from the parental peptide). With chain 1 EEDDYTAYAPLYCYFT [chain 1 T12Y] the figure was 3.73 log2 (difference from the parental peptide). For chain 1 EEDDYTAYAPLFCYFT [chain 1 T12F], the enrichment was 3.41 log2 (difference from the parental peptide). In the case of chain 1 EEDDYTAYAPLMCYFT [chain 1 T12M], the enrichment is 1.53 log2 (difference from the parental peptide). With chain 1 EEDDYTAYAPLCCYFT [chain 1 T12C] the figure was -7.61 log2 (difference from the parental peptide).

On to chain 1 EEDDYTAYAPLPCYFT [chain 1 T12P], for which the enrichment was -4.32 log2 (difference from the parental peptide). For the variant chain 1 EEDDSTAYAPLTCYFT [chain 1 Y5S], the enrichment is -6.07 log2 (difference from the parental peptide). With chain 1 EEDDMTAYAPLTCYFT [chain 1 Y5M], the enrichment was -5.03 log2 (difference from the parental peptide).

As to chain 1 EEDDCTAYAPLTCYFT [chain 1 Y5C], the enrichment was -4.33 log2 (difference from the parental peptide). With chain 1 EEDDHTAYAPLTCYFT [chain 1 Y5H] the figure was -6.3 log2 (difference from the parental peptide); with chain 1 EEDDDTAYAPLTCYFT [chain 1 Y5D], -5.02 log2 (difference from the parental peptide).

As to chain 1 EEDDWTAYAPLTCYFT [chain 1 Y5W], the enrichment was 3.19 log2 (difference from the parental peptide). With chain 1 EEDDTTAYAPLTCYFT [chain 1 Y5T] the figure was -5.05 log2 (difference from the parental peptide); with chain 1 EEDDITAYAPLTCYFT [chain 1 Y5I], -6.6 log2 (difference from the parental peptide). chain 1 EEDDNTAYAPLTCYFT [chain 1 Y5N]: the enrichment is -6.68 log2 (difference from the parental peptide). With chain 1 EEDDFTAYAPLTCYFT [chain 1 Y5F] the figure was -2.5 log2 (difference from the parental peptide).

For the variant chain 1 EEDQYTAYAPLTCYFT [chain 1 D4Q], the enrichment is -5.46 log2 (difference from the parental peptide). As to chain 1 EEDYYTAYAPLTCYFT [chain 1 D4Y], the enrichment was 0.0224 log2 (difference from the parental peptide).

On to chain 1 EEDMYTAYAPLTCYFT [chain 1 D4M], for which the enrichment was -3.6 log2 (difference from the parental peptide). As for chain 1 EEDFYTAYAPLTCYFT [chain 1 D4F], the enrichment was -1.53 log2 (difference from the parental peptide). As for chain 1 EEDIYTAYAPLTCYFT [chain 1 D4I], the enrichment was -2.59 log2 (difference from the parental peptide).

On to chain 1 EEDVYTAYAPLTCYFT [chain 1 D4V], for which the enrichment was -4.18 log2 (difference from the parental peptide). With chain 1 EEWDYTAYAPLTCYFT [chain 1 D3W] the figure was 0.0843 log2 (difference from the parental peptide).

Take chain 1 EENDYTAYAPLTCYFT [chain 1 D3N]: the enrichment is -6.84 log2 (difference from the parental peptide). On to chain 1 EEEDYTAYAPLTCYFT [chain 1 D3E], for which the enrichment is -0.508 log2 (difference from the parental peptide). With chain 1 EESDYTAYAPLTCYFT [chain 1 D3S] the figure was -8.53 log2 (difference from the parental peptide); with chain 1 EEDDYNAYAPLTCYFT [chain 1 T6N], -0.836 log2 (difference from the parental peptide); with chain 1 EEDDYDAYAPLTCYFT [chain 1 T6D], 2.57 log2 (difference from the parental peptide). With chain 1 EEDDYYAYAPLTCYFT [chain 1 T6Y] the figure was 4.88 log2 (difference from the parental peptide); with chain 1 EEDDYKAYAPLTCYFT [chain 1 T6K], -1.49 log2 (difference from the parental peptide). With chain 1 EEDDYGAYAPLTCYFT [chain 1 T6G] the figure was 1.65 log2 (difference from the parental peptide); with chain 1 EEDDYHAYAPLTCYFT [chain 1 T6H], -2.26 log2 (difference from the parental peptide); with chain 1 EEDDYLAYAPLTCYFT [chain 1 T6L], 1.3 log2 (difference from the parental peptide). On to chain 1 EEDDYAAYAPLTCYFT [chain 1 T6A], for which the enrichment is -0.907 log2 (difference from the parental peptide).

As to chain 1 TEDDYTAYAPLTCYFT [chain 1 E1T], the enrichment is -5.43 log2 (difference from the parental peptide).

chain 1 NEDDYTAYAPLTCYFT [chain 1 E1N]: the enrichment was -2.91 log2 (difference from the parental peptide).

Regarding chain 1 GEDDYTAYAPLTCYFT [chain 1 E1G], the enrichment is -6.21 log2 (difference from the parental peptide).

Regarding chain 1 HEDDYTAYAPLTCYFT [chain 1 E1H], the enrichment is -5.95 log2 (difference from the parental peptide).

For the variant chain 1 IEDDYTAYAPLTCYFT [chain 1 E1I], the enrichment is -1.84 log2 (difference from the parental peptide).

Turning to chain 1 FEDDYTAYAPLTCYFT [chain 1 E1F], the enrichment is -0.113 log2 (difference from the parental peptide). With chain 1 VEDDYTAYAPLTCYFT [chain 1 E1V] the figure was -1.37 log2 (difference from the parental peptide); with chain 1 EEDDYTAYAPCTCYFT [chain 1 L11C], -4.39 log2 (difference from the parental peptide).

Regarding chain 1 EEDDYTAYAPSTCYFT [chain 1 L11S], the enrichment was -5.08 log2 (difference from the parental peptide). With chain 1 EEDDYTAYAPMTCYFT [chain 1 L11M] the figure was -1.53 log2 (difference from the parental peptide); with chain 1 EEDDYTAYAPTTCYFT [chain 1 L11T], -3.41 log2 (difference from the parental peptide). With chain 1 EEDDYTAYAPKTCYFT [chain 1 L11K] the figure was -3.64 log2 (difference from the parental peptide). With chain 1 EEDDYTAYAPQTCYFT [chain 1 L11Q], the enrichment was -1.91 log2 (difference from the parental peptide).

Regarding chain 1 EEDDYTAYAPPTCYFT [chain 1 L11P], the enrichment was -5.49 log2 (difference from the parental peptide). With chain 1 EEDDYTAYAPLTCPFT [chain 1 Y14P] the figure was -7.82 log2 (difference from the parental peptide); with chain 1 EEDDYTAYAPLTCFFT [chain 1 Y14F], -2.54 log2 (difference from the parental peptide); with chain 1 EEDDYTAYAPLTCAFT [chain 1 Y14A], -9.01 log2 (difference from the parental peptide). With chain 1 EEDDYTAYAPLTCGFT [chain 1 Y14G] the figure was -9.47 log2 (difference from the parental peptide). With chain 1 EEDDYTAYAPLTCVFT [chain 1 Y14V] the figure was -7.09 log2 (difference from the parental peptide). On to chain 1 EEDDYTAYAPLTCYFS [chain 1 T16S], for which the enrichment was -1.7 log2 (difference from the parental peptide). With chain 1 EEDDYTAYAPLTCYFW [chain 1 T16W] the figure was 0.831 log2 (difference from the parental peptide); with chain 1 EEDDYTAYAPLTCYFC [chain 1 T16C], -6.65 log2 (difference from the parental peptide).

For the variant chain 1 EEDDYTAYAPLTCYFY [chain 1 T16Y], the enrichment was -0.692 log2 (difference from the parental peptide). With chain 1 EEDDYTAYAPLTCYFK [chain 1 T16K] the figure was -6.25 log2 (difference from the parental peptide); with chain 1 EEDDYTAYAPLTCYFQ [chain 1 T16Q], -5.8 log2 (difference from the parental peptide); with chain 1 EEDDYTAYAPLTCYFH [chain 1 T16H], -3.46 log2 (difference from the parental peptide).

As to chain 1 EEDDYTAYAPLTCYFN [chain 1 T16N], the enrichment was -5.68 log2 (difference from the parental peptide). As to chain 1 EEDDYTAYAPLTCYFV [chain 1 T16V], the enrichment is 0.157 log2 (difference from the parental peptide). Consider chain 1 EEDDYTAYAPLTCYFE [chain 1 T16E], for which the enrichment was -1.61 log2 (difference from the parental peptide). With chain 1 EEDDYTAYAPLTCYFL [chain 1 T16L] the figure was 0.688 log2 (difference from the parental peptide); with chain 1 EEDDYTAYAPLTCYFF [chain 1 T16F], -0.403 log2 (difference from the parental peptide); with chain 1 EEDDYTAYAPLTCYFR [chain 1 T16R], -6.57 log2 (difference from the parental peptide).

For chain 1 EEDDYTAYLPLTCYFT [chain 1 A9L], the enrichment is -1.81 log2 (difference from the parental peptide). With chain 1 EEDDYTAYTPLTCYFT [chain 1 A9T] the figure was -6.55 log2 (difference from the parental peptide); with chain 1 EEDDYTAYFPLTCYFT [chain 1 A9F], -2.77 log2 (difference from the parental peptide). With chain 1 EEDDYTAYMPLTCYFT [chain 1 A9M] the figure was -0.965 log2 (difference from the parental peptide). With chain 1 EEDDYTAYVPLTCYFT [chain 1 A9V] the figure was -6.04 log2 (difference from the parental peptide). For chain 1 EEDDYTAYYPLTCYFT [chain 1 A9Y], the enrichment is 0.673 log2 (difference from the parental peptide).

Values taken from publication PMC11969024 (2025).
